From PMC4993509 (PLoS ONE, 2016)

Target: the molecule itself
Assay: SEC-MALS; Superdex 200 HR 10/30 coupled to three-angle light scattering (mini-DAWN EOS) and refractive index detector, flow 0.2 ml/min

B1: C-terminal histidine-tagged SYCP1 CC (coiled-coil domain of human synaptonemal complex protein 1, residues 662-801) (domain or fragment, UniProt Q15431 662-801, looked up)
chain: DTYQKEIEDKKISEENLLEEVEKAKVIADEAVKLQKEIDKRCQHKIAEMVALMEKHKHQYDKIIEERDSELGLYKSKEQEQSSLRASLEIELSNLKAELLSVKKQLEIEREEKEKLKREAKENTATLKEKKDKKTQTFLL
notes: synaptonemal complex protein 1 (SYCP1), human, coiled-coil domain region, residues 662 (D)-801 (L); A selenomethionine-substituted form was also made and crystallised; the final model holds residues 673-767 (chain A) and 673-769 (chain B); also called SYCP CC; wildtype; source: E. coli BL21 (pET24a), purified (Ni-NTA, Superdex 200 gel filtration); not shown: His tag, C-terminal, kept
- stoichiometry N: 2
